Values of other authors in paper doi:10.1101/2025.09.11.675682.

Columns and labels:
Test in all cases: ITC
Conditions in all cases: cited from earlier work
[1] = target: SLP-76 157-420 (Homo sapiens) (UniProt Q13094)
[2] = target: LAT (Homo sapiens) (UniProt O43561)
[3] = target: LAT 125-178 (Homo sapiens) (UniProt O43561)
[4] = target: SLP-76 159-533 (Homo sapiens) (UniProt Q13094)
[5] = target: LAT 161-180 (Homo sapiens) (UniProt O43561)
[6] = target: LAT 122-140 (Homo sapiens) (UniProt O43561)

Chain of SLP-76 157-420 (Homo sapiens) (Q13094 157-420): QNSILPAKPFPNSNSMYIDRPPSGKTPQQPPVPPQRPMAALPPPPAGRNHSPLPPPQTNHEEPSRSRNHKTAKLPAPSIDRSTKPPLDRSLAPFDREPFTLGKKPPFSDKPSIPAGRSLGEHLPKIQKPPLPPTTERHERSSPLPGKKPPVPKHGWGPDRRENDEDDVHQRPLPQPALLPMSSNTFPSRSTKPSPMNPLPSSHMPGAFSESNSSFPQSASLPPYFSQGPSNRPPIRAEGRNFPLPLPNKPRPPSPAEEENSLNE
Chain of Gads 1-322 (from UniProt O89100) (O89100 whole entry): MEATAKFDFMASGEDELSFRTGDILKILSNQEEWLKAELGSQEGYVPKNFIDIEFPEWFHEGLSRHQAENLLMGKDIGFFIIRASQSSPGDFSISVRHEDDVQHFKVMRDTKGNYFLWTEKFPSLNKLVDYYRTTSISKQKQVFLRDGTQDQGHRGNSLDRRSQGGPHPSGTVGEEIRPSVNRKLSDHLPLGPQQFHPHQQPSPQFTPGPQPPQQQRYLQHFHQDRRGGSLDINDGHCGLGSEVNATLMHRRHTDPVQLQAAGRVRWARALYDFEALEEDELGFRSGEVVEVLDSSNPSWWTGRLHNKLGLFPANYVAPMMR
Chain of Gads 1-322 (from UniProt O75791) (O75791 1-322): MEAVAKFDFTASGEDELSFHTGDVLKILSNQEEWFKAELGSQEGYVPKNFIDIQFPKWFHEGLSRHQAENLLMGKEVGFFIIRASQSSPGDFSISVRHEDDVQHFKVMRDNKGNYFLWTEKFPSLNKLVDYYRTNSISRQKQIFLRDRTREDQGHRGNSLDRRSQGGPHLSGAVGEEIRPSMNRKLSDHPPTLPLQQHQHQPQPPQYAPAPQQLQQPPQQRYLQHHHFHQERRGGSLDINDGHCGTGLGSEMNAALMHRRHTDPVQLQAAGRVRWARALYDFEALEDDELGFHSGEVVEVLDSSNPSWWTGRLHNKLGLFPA
Chain of LAT 125-178 (Homo sapiens) (O43561 125-178): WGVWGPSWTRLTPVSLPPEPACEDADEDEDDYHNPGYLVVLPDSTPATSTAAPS
Chain of PLC-γ1 550-846 (P19174 550-846): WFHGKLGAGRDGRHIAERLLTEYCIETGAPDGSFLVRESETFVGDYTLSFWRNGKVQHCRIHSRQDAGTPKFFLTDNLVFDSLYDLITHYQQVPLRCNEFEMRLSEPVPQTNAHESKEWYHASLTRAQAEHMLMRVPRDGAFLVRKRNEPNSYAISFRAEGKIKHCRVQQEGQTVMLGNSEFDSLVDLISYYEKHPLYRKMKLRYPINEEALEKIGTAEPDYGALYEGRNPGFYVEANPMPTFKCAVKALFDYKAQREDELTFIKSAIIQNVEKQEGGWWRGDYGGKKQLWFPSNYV
Chain of PLC-γ1 (P19174 2-1290): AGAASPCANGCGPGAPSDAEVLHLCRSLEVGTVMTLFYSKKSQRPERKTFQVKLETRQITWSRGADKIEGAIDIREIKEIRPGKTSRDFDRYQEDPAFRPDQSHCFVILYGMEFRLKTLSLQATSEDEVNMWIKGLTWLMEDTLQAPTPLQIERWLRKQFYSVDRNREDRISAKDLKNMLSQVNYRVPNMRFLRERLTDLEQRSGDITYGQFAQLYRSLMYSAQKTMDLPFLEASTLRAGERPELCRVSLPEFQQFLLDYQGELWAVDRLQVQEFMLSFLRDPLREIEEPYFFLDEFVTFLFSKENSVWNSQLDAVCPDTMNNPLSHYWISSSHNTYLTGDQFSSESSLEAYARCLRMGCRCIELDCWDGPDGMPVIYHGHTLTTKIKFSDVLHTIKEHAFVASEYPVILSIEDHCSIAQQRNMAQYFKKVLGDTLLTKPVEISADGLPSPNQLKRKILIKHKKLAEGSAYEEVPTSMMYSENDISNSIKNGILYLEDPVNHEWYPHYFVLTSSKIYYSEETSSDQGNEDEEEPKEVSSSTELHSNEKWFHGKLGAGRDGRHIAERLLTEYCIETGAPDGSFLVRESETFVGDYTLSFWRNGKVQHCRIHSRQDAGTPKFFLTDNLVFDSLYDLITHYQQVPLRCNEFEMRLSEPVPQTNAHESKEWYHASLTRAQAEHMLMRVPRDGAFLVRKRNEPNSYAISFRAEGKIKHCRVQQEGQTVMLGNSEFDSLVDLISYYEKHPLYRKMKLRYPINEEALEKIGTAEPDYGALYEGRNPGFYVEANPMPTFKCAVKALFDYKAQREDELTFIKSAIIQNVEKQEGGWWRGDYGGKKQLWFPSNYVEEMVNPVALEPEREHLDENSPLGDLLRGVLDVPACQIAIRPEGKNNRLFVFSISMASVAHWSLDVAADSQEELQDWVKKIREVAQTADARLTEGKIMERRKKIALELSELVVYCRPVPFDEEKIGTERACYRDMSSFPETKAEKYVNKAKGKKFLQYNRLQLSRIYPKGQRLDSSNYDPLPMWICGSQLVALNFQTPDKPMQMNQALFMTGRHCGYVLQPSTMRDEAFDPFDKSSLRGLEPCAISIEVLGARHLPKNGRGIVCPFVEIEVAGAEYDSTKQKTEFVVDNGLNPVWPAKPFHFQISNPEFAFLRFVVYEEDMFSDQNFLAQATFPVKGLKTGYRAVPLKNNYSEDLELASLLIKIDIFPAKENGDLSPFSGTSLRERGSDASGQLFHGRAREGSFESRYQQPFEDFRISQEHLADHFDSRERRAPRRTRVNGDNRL
Chain of LAT (Homo sapiens) (O43561 161-180): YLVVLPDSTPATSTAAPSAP
Chain of PLC-γ1 1-1219 (P19174 1-1219): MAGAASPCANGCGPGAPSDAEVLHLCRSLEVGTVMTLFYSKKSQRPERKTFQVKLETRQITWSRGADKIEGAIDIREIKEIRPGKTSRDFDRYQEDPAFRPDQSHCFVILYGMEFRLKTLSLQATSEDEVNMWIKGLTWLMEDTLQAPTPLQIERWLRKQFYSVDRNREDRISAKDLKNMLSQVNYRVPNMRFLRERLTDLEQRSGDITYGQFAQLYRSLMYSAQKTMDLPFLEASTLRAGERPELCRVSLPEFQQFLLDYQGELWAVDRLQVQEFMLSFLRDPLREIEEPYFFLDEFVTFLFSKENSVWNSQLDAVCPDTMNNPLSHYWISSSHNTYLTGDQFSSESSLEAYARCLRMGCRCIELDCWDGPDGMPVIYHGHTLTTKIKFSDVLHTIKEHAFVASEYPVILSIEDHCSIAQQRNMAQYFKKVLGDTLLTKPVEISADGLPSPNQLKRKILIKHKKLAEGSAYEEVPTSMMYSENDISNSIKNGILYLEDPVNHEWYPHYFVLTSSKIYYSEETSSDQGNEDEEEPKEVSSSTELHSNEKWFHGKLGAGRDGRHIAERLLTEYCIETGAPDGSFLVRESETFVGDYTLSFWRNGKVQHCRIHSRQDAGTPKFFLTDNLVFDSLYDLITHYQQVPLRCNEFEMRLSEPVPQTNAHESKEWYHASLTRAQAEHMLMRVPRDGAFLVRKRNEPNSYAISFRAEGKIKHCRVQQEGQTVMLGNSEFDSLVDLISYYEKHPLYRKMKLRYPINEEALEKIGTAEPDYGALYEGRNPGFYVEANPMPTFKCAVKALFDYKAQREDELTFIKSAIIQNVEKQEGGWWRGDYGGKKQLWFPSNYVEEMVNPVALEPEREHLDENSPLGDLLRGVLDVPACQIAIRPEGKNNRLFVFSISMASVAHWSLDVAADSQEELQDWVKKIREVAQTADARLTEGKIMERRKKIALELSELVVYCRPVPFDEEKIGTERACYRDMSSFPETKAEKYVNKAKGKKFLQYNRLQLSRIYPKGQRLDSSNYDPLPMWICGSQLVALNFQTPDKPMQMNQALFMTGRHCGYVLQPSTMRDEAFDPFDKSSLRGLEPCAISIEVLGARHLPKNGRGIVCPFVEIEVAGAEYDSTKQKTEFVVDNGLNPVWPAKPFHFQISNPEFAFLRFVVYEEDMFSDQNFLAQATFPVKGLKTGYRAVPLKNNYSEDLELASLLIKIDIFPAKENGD
Chain of SLP-76 159-533 (Homo sapiens) (Q13094 159-533): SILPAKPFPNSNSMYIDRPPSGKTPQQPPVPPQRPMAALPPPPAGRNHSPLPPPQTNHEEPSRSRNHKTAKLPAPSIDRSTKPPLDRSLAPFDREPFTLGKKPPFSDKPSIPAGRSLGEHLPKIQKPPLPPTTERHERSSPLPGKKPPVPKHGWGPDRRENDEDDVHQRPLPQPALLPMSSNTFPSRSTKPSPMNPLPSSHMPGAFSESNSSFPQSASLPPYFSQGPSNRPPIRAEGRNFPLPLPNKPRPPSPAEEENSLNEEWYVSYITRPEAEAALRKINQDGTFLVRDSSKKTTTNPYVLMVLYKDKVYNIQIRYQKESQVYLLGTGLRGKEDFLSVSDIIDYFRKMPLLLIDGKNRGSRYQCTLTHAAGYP

Substance | Kd [1] [nM] | Kd [3] [nM] | also measured
PLC-γ1 (from UniProt P19174) | 3340 | – | –
Gads 1-322 (from UniProt O89100) | 19 | 213 | Kd [2]: 164 nM; Kd [4]: 3.6 nM
Gads 1-322 (from UniProt O75791) | 19 | – | Kd [5]: 164 nM
PLC-γ1 550-846 (from UniProt P19174) | 3340 | – | Kd [6]: 62 nM
PLC-γ1 1-1219 (from UniProt P19174) | – | 84 | –
